In paper PMC7373190, “Archaeal Chromatin Proteins Cren7 and Sul7d Compact DNA by Bending and Bridging” (mBio, 2020):

Molecular target: the molecule itself
Test: cross-linking; 10 ug protein in 10 ul, 1 mM DSP, 30 min at 25°C, 20 mM HEPES-KOH pH 7.6, 50 mM KCl, without or with pUC18 DNA (protein/DNA mass ratios 1:1 and 1:5); non-reducing 15% SDS-PAGE, Coomassie

B1: Sis7d (natural protein)
chain: MTTVKFKYKGEEKQVDTSKIKKVWRVGKMISFTYDEGGGKTGRGAVSEKDAPKELLQMLEKQKK
Q: For B1, which “stoichiometry N” value is on record?
A: 2
